Four molecules from US20040132659A1 (UNIVERSITY OF SOUTHERN CALIFORNIA, published 2004) can be followed below.

One experiment concerns the target integrin αvβ3 on cells (human, UniProt P06756 31-1048; P05106 27-788). The experiment is described as follows: cell-based or functional assay.
The target in experiment [1] is integrin αvβ5 on cells (human) (UniProt P06756). The experiment is described as follows: cell-based or functional assay.
The target in experiment [2] is integrin receptors on the surface of MDA-MB-435 cells. The experiment is described as follows: inhibition of binding of MDA-MB-435 cells to immobilized CN (0.1 µg/well); competitor: immobilized CN.
For experiment [3] the target is unchanged. Kind of experiment: cell-based or functional assay.
In experiment [4] the target is T1, platelet membrane glycoprotein (GP)IIb/IIIa on human platelets (human, UniProt P08514 32-1039; P05106 27-788).
T1 construct: whole, on cells; also called fibrinogen receptor; αIIbβ3
The experiment is described as follows: Scatchard analysis of CN binding to unactivated human platelets.

The target in experiment [5] is T1, platelet membrane glycoprotein ….
Experiment [6] has as its target binding sites on human melanoma M24met cells. The experiment is described as follows: binding of CN to human melanoma M24met cells, high affinity site.
For experiment [7] the target is unchanged. The experiment is described as follows: binding of CN to human melanoma M24met cells, lower affinity site.

Sequence of integrin αvβ3 on cells (P06756 31-1048, chain 1 of 2): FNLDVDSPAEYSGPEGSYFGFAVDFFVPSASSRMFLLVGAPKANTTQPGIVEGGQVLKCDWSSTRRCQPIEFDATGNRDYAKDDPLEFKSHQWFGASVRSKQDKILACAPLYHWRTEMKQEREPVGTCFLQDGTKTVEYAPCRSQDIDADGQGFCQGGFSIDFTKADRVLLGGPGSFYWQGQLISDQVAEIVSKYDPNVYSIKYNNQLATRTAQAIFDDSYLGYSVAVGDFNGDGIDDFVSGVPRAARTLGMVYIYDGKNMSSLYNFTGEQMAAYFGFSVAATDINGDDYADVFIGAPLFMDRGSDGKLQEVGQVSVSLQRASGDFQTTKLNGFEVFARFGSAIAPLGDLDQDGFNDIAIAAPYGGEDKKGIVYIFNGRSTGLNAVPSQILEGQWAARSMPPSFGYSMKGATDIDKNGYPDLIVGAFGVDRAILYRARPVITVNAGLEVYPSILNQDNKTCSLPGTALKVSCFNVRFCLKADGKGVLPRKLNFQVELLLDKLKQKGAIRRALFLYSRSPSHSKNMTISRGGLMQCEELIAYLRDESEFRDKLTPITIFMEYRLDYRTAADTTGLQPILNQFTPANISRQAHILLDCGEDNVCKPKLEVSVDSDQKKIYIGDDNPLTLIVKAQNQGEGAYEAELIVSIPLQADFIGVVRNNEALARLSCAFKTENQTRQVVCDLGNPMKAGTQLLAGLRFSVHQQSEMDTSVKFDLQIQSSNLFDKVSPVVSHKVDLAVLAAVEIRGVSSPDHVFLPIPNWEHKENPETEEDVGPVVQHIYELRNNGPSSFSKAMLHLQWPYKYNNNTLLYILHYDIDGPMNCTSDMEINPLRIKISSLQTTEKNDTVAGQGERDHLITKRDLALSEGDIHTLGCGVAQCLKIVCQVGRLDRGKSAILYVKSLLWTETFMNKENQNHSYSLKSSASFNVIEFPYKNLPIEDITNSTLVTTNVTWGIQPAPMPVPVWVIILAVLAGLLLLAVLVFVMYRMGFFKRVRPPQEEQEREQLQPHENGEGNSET
Sequence of integrin αvβ3 on cells (P05106 27-788, chain 2 of 2): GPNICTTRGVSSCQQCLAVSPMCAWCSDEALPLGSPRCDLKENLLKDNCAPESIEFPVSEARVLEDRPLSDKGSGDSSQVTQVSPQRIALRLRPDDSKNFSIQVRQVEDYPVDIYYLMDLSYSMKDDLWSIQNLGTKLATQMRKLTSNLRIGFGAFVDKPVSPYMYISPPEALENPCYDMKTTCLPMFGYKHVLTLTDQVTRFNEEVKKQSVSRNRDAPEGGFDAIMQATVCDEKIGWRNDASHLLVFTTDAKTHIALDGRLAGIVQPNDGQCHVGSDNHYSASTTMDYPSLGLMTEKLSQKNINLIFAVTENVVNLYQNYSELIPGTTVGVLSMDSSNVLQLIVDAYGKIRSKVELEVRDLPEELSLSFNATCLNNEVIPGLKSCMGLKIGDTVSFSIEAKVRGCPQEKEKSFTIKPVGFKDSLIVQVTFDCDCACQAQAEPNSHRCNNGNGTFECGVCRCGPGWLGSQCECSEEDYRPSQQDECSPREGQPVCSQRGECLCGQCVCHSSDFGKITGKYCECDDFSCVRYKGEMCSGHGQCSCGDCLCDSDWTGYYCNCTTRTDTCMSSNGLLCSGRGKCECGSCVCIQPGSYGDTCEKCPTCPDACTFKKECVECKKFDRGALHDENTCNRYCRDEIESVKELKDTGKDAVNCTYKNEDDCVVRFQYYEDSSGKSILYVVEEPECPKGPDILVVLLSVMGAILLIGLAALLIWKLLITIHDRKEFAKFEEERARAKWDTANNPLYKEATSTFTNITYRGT
Sequence of integrin αvβ5 on cells (human) (P06756 31-1048, chain 1 of 2): as the sequence (P06756 31-1048, chain 1 of 2) above
Sequence of integrin αvβ5 on cells (human) (P18084 24-799, chain 2 of 2, further chain): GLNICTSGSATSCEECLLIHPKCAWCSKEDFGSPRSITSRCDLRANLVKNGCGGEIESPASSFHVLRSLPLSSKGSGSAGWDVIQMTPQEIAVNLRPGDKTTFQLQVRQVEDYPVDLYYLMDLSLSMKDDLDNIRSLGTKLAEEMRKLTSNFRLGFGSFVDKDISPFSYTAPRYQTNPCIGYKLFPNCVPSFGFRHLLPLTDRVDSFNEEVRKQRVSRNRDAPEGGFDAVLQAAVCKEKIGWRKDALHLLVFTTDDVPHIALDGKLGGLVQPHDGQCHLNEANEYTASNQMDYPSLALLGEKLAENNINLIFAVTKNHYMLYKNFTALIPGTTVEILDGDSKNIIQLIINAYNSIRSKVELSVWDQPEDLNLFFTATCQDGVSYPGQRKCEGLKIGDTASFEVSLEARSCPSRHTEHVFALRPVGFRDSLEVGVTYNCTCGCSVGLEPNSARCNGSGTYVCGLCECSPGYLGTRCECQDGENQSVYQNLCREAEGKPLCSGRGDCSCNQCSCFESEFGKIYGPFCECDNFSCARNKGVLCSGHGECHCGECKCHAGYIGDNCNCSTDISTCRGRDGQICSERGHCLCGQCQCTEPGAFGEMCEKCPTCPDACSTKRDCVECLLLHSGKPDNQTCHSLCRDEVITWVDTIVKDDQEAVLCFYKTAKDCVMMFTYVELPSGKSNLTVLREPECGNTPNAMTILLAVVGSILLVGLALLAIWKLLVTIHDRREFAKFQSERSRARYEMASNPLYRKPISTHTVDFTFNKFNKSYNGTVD
T1 sequence (P08514 32-1039, chain 1 of 2): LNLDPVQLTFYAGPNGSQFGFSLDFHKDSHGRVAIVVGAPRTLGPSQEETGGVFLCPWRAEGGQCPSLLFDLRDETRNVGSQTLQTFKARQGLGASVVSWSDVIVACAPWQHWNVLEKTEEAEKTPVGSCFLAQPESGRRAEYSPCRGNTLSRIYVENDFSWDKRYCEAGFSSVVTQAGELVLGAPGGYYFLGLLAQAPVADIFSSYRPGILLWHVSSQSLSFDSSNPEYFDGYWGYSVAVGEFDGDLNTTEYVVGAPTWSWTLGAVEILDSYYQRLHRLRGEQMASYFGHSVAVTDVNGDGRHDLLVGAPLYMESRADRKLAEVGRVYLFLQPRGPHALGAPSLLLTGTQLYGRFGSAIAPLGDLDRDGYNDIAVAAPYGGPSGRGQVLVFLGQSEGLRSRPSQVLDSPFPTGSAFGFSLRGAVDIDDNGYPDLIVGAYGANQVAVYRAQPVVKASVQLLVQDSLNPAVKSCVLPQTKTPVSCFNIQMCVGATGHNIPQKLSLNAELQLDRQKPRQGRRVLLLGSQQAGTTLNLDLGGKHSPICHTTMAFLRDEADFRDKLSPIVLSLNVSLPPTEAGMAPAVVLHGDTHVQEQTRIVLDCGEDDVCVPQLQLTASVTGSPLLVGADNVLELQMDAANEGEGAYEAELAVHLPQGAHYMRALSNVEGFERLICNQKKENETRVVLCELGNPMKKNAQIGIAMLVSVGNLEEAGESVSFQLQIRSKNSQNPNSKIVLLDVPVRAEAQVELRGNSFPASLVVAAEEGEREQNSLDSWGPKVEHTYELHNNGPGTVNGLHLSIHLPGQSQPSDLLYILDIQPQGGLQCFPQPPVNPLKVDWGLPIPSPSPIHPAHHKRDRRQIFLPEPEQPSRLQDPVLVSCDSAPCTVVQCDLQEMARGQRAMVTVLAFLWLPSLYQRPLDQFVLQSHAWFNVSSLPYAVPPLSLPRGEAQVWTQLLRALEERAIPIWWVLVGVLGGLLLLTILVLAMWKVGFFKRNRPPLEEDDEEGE
T1 sequence (P05106 27-788, chain 2 of 2): as the sequence (P05106 27-788, chain 2 of 2) above

For 7E3 murine monoclonal antibody, in the experiment with integrin αvβ3 on cells, the maximum inhibition of adhesion of T24 cells to immobilized vitronectin is under 40%.

With P1F6 monoclonal antibody, in experiment [1], the inhibition of adhesion of T24-β3 neg. cells to immobilized vitronectin was 80% and the inhibition of adhesion of T24 cells to immobilized vitronectin was under 40%.

Take GRGDSP [RGD peptide GRGDSP]: the IC50 – broadly, the concentration needed to halve the response being measured – in experiment [2] is 400000 nM.

B1: contortrostatin (ligand)
chain: DAPANPCCDAATCKLTTGSQCADGLCCDQCKFMKEGTVCRRARGDDLDDYCNGISAGCPRNPFHA
notes: also called CN; homodimeric disintegrin
In the case of B1, the “IC50 for inhibition of adhesion of MDA-MB-435 cells to immobilized vitronectin” value with integrin αvβ3 on cells was 1.5 nM. Further, the IC50 for inhibition of adhesion of MDA-MB-435 cells to immobilized fibronectin in experiment [3] stood at 18 nM. Further, the Kd (usually the free concentration of one partner at which half of the binding sites on the other are occupied at equilibrium, for simple one-to-one binding) in experiment [4] was determined as 37 nM; in experiment [6], 1.1 nM; in experiment [7], 41 nM. In experiment [5], this molecule registered an IC50 of 25 nM. In addition, the sites per cell (sites per cell) was 96000 in experiment [6] and 480000 in experiment [7].
